Among the data in patent publication US20170128554A1 are fold capacity to interact with fetuin, against wild type Fbs and fold ability to be pulled down by immobilized fetuin, against wild type Fbs values, retold here.

In this experiment the target is Fetuin (denatured; sialylated complex N-linked glycans) (UniProt P12763). Put plainly: fetuin pull-down from cell lysates, low salt buffer, SDS-PAGE band quantification.
Fetuin (denatured; sialylated complex N-linked glycans), sequence (P12763 19-359, one chain of several): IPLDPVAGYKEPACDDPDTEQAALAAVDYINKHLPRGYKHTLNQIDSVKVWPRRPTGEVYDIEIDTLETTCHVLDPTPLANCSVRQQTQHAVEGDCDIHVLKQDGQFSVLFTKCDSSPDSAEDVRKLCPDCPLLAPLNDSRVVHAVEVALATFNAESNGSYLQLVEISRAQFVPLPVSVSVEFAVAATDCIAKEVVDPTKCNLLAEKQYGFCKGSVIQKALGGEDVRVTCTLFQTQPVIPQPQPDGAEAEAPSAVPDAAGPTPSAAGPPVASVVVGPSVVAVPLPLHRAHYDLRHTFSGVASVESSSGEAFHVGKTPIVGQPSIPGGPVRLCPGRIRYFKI

On to “Fbs mutant S155G (from UniProt Q9UK22 113-296)”, for which the fold capacity to interact with fetuin, against wild type Fbs is 2 fold.
Turning to “Fbs mutant S155A (from UniProt Q9UK22 113-296)”, the fold ability to be pulled down by immobilized fetuin, against wild type Fbs was determined as 1.5 times.
